Data: patent US20260242735A1 (UNIVERSIT T BASEL, published 2026)

Experiments:
Assay in all cases: flow cytometry, transfected cells
human CD33 N20Y = human CD33 N20Y (human, UniProt P20138 18-364)
human CD33 N20T = human CD33 N20T (human, UniProt P20138 18-364)
human CD33 P46H = human CD33 P46H (human, UniProt P20138 18-364)
human CD33 F21I = human CD33 F21I (human, UniProt P20138 18-364)
human CD33 N20E = human CD33 N20E (human, UniProt P20138 18-364)
human CD33 P46D = human CD33 P46D (human, UniProt P20138 18-364)
human CD33 P46F = human CD33 P46F (human, UniProt P20138 18-364)
human CD33 P19D = human CD33 P19D (human, UniProt P20138 18-364)
human CD33 W22G = human CD33 W22G (human, UniProt P20138 18-364)
human CD33 P46R = human CD33 P46R (human, UniProt P20138 18-364)
human CD33 N20P = human CD33 N20P (human, UniProt P20138 18-364)
human CD33 N20Q = human CD33 N20Q (human, UniProt P20138 18-364)
human CD33 F21S = human CD33 F21S (human, UniProt P20138 18-364)
human CD33 I47P = human CD33 I47P (human, UniProt P20138 18-364)
human CD33 F21V = human CD33 F21V (human, UniProt P20138 18-364)
human CD33 N20W = human CD33 N20W (human, UniProt P20138 18-364)
human CD33 W22S = human CD33 W22S (human, UniProt P20138 18-364)
human CD33 F21L = human CD33 F21L (human, UniProt P20138 18-364)
Chain of human CD33 F21L (P20138 18-364 F21L limits assumed): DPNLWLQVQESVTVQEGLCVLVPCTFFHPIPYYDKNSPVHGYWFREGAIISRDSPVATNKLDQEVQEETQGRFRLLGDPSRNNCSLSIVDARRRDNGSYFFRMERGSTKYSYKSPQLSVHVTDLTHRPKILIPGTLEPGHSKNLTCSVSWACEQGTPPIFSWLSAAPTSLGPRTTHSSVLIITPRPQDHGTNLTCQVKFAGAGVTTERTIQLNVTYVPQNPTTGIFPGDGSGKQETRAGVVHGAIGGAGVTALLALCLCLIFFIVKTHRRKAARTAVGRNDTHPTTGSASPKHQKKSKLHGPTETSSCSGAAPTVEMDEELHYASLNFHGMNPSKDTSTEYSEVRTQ

Chain of human CD33 I47P (P20138 18-364 I47P limits assumed): as the sequence (P20138 18-364 F21L limits assumed) above, with L4F, I30P counted along it
Chain of human CD33 F21I (P20138 18-364 F21I limits assumed): as the sequence (P20138 18-364 F21L limits assumed) above, with L4I counted along it
Chain of human CD33 P46R (P20138 18-364 P46R limits assumed): as the sequence (P20138 18-364 F21L limits assumed) above, with L4F, P29R counted along it
Chain of human CD33 P46H (P20138 18-364 P46H limits assumed): as the sequence (P20138 18-364 F21L limits assumed) above, with L4F, P29H counted along it
Chain of human CD33 N20Q (P20138 18-364 N20Q limits assumed): as the sequence (P20138 18-364 F21L limits assumed) above, with N3Q, L4F counted along it
Chain of human CD33 F21S (P20138 18-364 F21S limits assumed): as the sequence (P20138 18-364 F21L limits assumed) above, with L4S counted along it
Chain of human CD33 N20W (P20138 18-364 N20W limits assumed): as the sequence (P20138 18-364 F21L limits assumed) above, with N3W, L4F counted along it
Chain of human CD33 N20T (P20138 18-364 N20T limits assumed): as the sequence (P20138 18-364 F21L limits assumed) above, with N3T, L4F counted along it
Chain of human CD33 P19D (P20138 18-364 P19D limits assumed): as the sequence (P20138 18-364 F21L limits assumed) above, with P2D, L4F counted along it
Chain of human CD33 N20Y (P20138 18-364 N20Y limits assumed): as the sequence (P20138 18-364 F21L limits assumed) above, with N3Y, L4F counted along it
Chain of human CD33 P46F (P20138 18-364 P46F limits assumed): as the sequence (P20138 18-364 F21L limits assumed) above, with L4F, P29F counted along it
Chain of human CD33 F21V (P20138 18-364 F21V limits assumed): as the sequence (P20138 18-364 F21L limits assumed) above, with L4V counted along it
Chain of human CD33 N20E (P20138 18-364 N20E limits assumed): as the sequence (P20138 18-364 F21L limits assumed) above, with N3E, L4F counted along it
Chain of human CD33 N20P (P20138 18-364 N20P limits assumed): as the sequence (P20138 18-364 F21L limits assumed) above, with N3P, L4F counted along it
Chain of human CD33 P46D (P20138 18-364 P46D limits assumed): as the sequence (P20138 18-364 F21L limits assumed) above, with L4F, P29D counted along it
Chain of human CD33 W22S (P20138 18-364 W22S limits assumed): as the sequence (P20138 18-364 F21L limits assumed) above, with L4F, W5S counted along it
Chain of human CD33 W22G (P20138 18-364 W22G limits assumed): as the sequence (P20138 18-364 F21L limits assumed) above, with L4F, W5G counted along it

binding result (human CD33 N20Y): no binding (tested: below 20%)
binding result (human CD33 N20T): no binding (tested: below 20%)
binding result (human CD33 P46H): no binding (tested: below 20%)
binding result (human CD33 F21I): no binding (tested: below 20%)
binding result (human CD33 N20E): no binding (tested: below 20%)
binding result (human CD33 P46D): no binding (tested: below 20%)
binding result (human CD33 P46F): no binding (tested: below 20%)
binding result (human CD33 P19D): no binding (tested: below 20%)
binding result (human CD33 W22G): no binding (tested: below 20%)
binding result (human CD33 P46R): no binding (tested: below 20%)
binding result (human CD33 N20P): no binding (tested: below 20%)
binding result (human CD33 N20Q): no binding (tested: below 20%)
binding result (human CD33 F21S): no binding (tested: below 20%)
binding result (human CD33 I47P): no binding (tested: below 20%)
binding result (human CD33 F21V): no binding (tested: below 20%)
binding result (human CD33 N20W): no binding (tested: below 20%)
binding result (human CD33 W22S): no binding (tested: below 20%)
binding result (human CD33 F21L): no binding (tested: below 20%)
B1: Refmab #3 (antibody, human IgG1, V domains shown)
VH: QVQLVQSGAEVKKPGSSVKVSCKASGYTFTDYNMHWVRQAPGQGLEWIGYIYPYNGGTGYNQKFKSKATITADESTNTAYMELSSLRSEDTAVYYCARGRPAMDYWGQGTLVTVSS
VL: DIQMTQSPSSLSASVGDRVTITCRASESVDNYGISFMNWFQQKPGKAPKLLIYAASNQGSGVPSRFSGSGSGTDFTLTISSLQPDDFATYYCQQSKEVPWTFGQGTKVEIK
